Source: PMC4876929 (Nature, 2015)
Positions count from the first letter of the chain named. Numbers in names are those of the source. Read-outs that look alike come from different tables or passages of the source.

B1: Fluc channel from Bordetella pertussis (Bpe), R29K/E94C, Hg-labelled (natural protein)
chain: MLTYAPLNFIAIGIGATLGAWLRWVLGLKLNGAGWPWGTLTANLVGGYLIGVMVALIASHPEWPAWIRLAAVTGFLGGLTTFSTFSAETVDMLCRGVYATAAAYAGASLAGSLAMTGLGLATVRLLLR
modifications: Hg at the unique cysteine (E94C), labelled with Hg(II) acetate
B2: Fluc channel from Bordetella pertussis (Bpe), R29K/E94S (natural protein, UniProt Q7VYU0 1-128, looked up)
chain: B1 chain with C94S

Assays:
[1] = molecular target: the molecule itself; assay: crystal structure
[2] = molecular target: the molecule itself; assay: crystal structure; remark: listed apart in the source

Protein | stoichiometry N [1] | stoichiometry N [2]
B1 | 2 | 
B2 |  | 2
